Results: publication PMC7644671 (Nature structural & molecular biology, 2020)

Target: the molecule itself
Assay: cryo-EM structure

B1: mouse DUOX1 (enzyme, mouse (Mus musculus), UniProt A2AQ92 20-1551, looked up)
chain: GAQNSISWEVQRFDGWYNNLMEHRWGSKGSRLQRLVPASYADGVYQPLKEPYLPNPRHLSNRVMRGSAGQPSLRNRTVLGVFFGYHVLSDLVSVETPGCPAEFLNIYIPHGDPVFDPDKRGNVVLPFQRSRWDRNTGQSPSNPRDQSNQVTGWLDGSAIYGSSHSWSDTLRSFSGGQLASGPDPAFPSDSQSSLLMWMAPDPSTGQGGPRGVYAFGAQRGNREPFLQALGLLWFRYHNLCARKLAQEHPHWGDEELFQHARKRVIATYQNIAMYEWLPSFLKQTPPEYPGYRPFLDPSISPEFVVASEQFLSTMVPSGVYMRNASCHFQGIPSHNSSVSGALRVCNSYWSREHPKLQRAEDVDALLLGMASQIAEREDHVVVEDMQDFWPGPLKFSRTDYLASCLQRGRDLGLPSYTKAREALGLSPISHWQDINPALSRSNGTVLEATAALYNQDLSRLELLPGGLLESHGDPGPLFSTIVLDQFVRLRDGDRYWFENTRNGLFSKEEIAEIRNTSLRDILVAVTNVDPSALQPNVFFWLAGDPCPQPSQLSAKGLPACAPLFIRDYFEGSGFGFGLTIGTLCCFPLVSLLSAWIVARLRKRNFKRLQRQDRQSIMSEKLVGGVEALEWQGRNEPCRPVLVHLQPGQIRVVDGRLTVLRTIQLRPPQQVNLILSSNRGRRTLLLKIPKEYDLVLLFNMEEERQALVENVRGALKENGLSFQEWELREQELMRAAVTRQQRGHLLETFFRHLFSQVLDINQADAGTLPLDSSTKVREALTCELSRAEFADSLGLKPQDMFVESMFSLADKDGNGYLSFREFLDILVVFMKGSPEEKSRLMFRMYDFDGNGLISKDEFIRMLRSFIEISNNCLSKAQLAEVVESMFRESGFQDKEELTWEDFHFMLRDHDSDLRFTQLCVKGVEVPEVIKNLCRRASYISQEKICPSPRMSAHCARNNMKTASSPQRLQCPMDTDPPQEIRRRFGKKVTSFQPLLFTEAHREKFQRSRRHQTVQQFKRFIENYRRHIGCVAVFYTITGALFLERAYYYAFAAHHSGITDTTRVGIILSRGTAASISFMFSYILLTMCRNLITFLRETFLNRYIPFDAAVDFHRLIASTAIILTVLHSAGHVVNVYLFSISPLSVLSCLFPGLFHDDGSEFPQKYYWWFFQTVPGLTGVLLLLALAIMYVFASHHFRRRSFRGFWLTHHLYIFLYILLIIHGSFALIQMPRFHIFFLVPAIIYVGDKLVSLSRKKVEISVVKAELLPSGVTHLRFQRPQGFEYKSGQWVRIACLALGTTEYHPFTLTSAPHEDTLSLHIRAAGPWTTRLREIYSPPTGDTCARYPKLYLDGPFGEGHQEWHKFEVSVLVGGGIGVTPFASILKDLVFKSSVSCQVFCKKIYFIWVTRTQRQFEWLADIIREVEENDRQDLVSVHIYITQLAEKFDLRTTMLYICERHFQKVLNRSLFTGLRSITHFGRPPFEPFFNSLQEVHPQVRKIGVFSCGPPGMTKNVEKACQLINRQDRTHFSHHYENF
modifications: sugar densities at glycosylation sites N94, N324 and N534
- stoichiometry N: 2
